Measurements as given in patent publication US20230365662A1.
Positions count from the first letter of the chain named. Numbers in names are those of the source. Where “and” joins values, the source holds several entries; their conditions need not be identical. Equal entries are not always repeated.

B1: KB001 mouse Fab VL T24M (Fab, V domains shown)
VH: EVQLKQSGPGLVAPSQSLSITCTVSGFSLSIYSVHWVRQPPGKGLEWLGMIWGGGSSDYNSALKSRLSISKDNSKSQVFLKMNSLQTDDTAMYYCARNGNFYAMDYWGQGTSVTVSS
VL: QIVLTQSPAIMSASLGERVTMTCMASSSVSSSFLHWYQQKPGSSPQLWIYSTSNLASGVPARFSGSGSGTSYSLTISSMEAEDAATYYCHQYHHSPYIYTFGGGTKLEIK
B2: KB001 mouse Fab VL S28P (Fab, V domains shown)
VH: B1 VH
VL: B1 VL with M24T, S28P
B3: KB001 mouse Fab VL N54R (Fab, V domains shown)
VH: B1 VH
VL: B1 VL with M24T, N54R
B4: KB001 mouse Fab VL S26D (Fab, V domains shown)
VH: B1 VH
VL: B1 VL with M24T, S26D
B5: KB001 mouse Fab VL N54Q (Fab, V domains shown)
VH: B1 VH
VL: B1 VL with M24T, N54Q
B6: KB001 mouse Fab VL S57T (Fab, V domains shown)
VH: B1 VH
VL: B1 VL with M24T, S57T
B7: KB001 mouse Fab VL A25F (Fab, V domains shown)
VH: B1 VH
VL: B1 VL with M24T, A25F
B8: KB001 mouse Fab VL S53H (Fab, V domains shown)
VH: B1 VH
VL: B1 VL with M24T, S53H
B9: KB001 mouse Fab VL S27K (Fab, V domains shown)
VH: B1 VH
VL: B1 VL with M24T, S27K
B10: KB001 mouse Fab VL L55N (Fab, V domains shown)
VH: B1 VH
VL: B1 VL with M24T, L55N
B11: KB001 mouse Fab VL A25T (Fab, V domains shown)
VH: B1 VH
VL: B1 VL with M24T, A25T
B12: KB001 mouse Fab VL T24K (Fab, V domains shown)
VH: B1 VH
VL: B1 VL with M24K
B13: KB001 mouse Fab VL S57G (Fab, V domains shown)
VH: B1 VH
VL: B1 VL with M24T, S57G
B14: KB001 mouse Fab VL T52A (Fab, V domains shown)
VH: B1 VH
VL: B1 VL with M24T, T52A
B15: KB001 mouse Fab VL S53N (Fab, V domains shown)
VH: B1 VH
VL: B1 VL with M24T, S53N
B16: KB001 mouse Fab VL S28G (Fab, V domains shown)
VH: B1 VH
VL: B1 VL with M24T, S28G
B17: KB001 mouse Fab VL S30F (Fab, V domains shown)
VH: B1 VH
VL: B1 VL with M24T, S30F
B18: KB001 mouse Fab VL S57P (Fab, V domains shown)
VH: B1 VH
VL: B1 VL with M24T, S57P
B19: KB001 mouse Fab VL T24E (Fab, V domains shown)
VH: B1 VH
VL: B1 VL with M24E
B20: KB001 mouse Fab VL S57N (Fab, V domains shown)
VH: B1 VH
VL: B1 VL with M24T, S57N
B21: KB001 mouse Fab VL S51G (Fab, V domains shown)
VH: B1 VH
VL: B1 VL with M24T, S51G
B22: KB001 mouse Fab VL S31E (Fab, V domains shown)
VH: B1 VH
VL: B1 VL with M24T, S31E
B23: KB001 mouse Fab VL T52S (Fab, V domains shown)
VH: B1 VH
VL: B1 VL with M24T, T52S
B24: KB001 mouse Fab VL S31Y (Fab, V domains shown)
VH: B1 VH
VL: B1 VL with M24T, S31Y
B25: KB001 mouse Fab VL S31F (Fab, V domains shown)
VH: B1 VH
VL: B1 VL with M24T, S31F
B26: KB001 mouse Fab VL S28K (Fab, V domains shown)
VH: B1 VH
VL: B1 VL with M24T, S28K
B27: KB001 mouse Fab VL H90W (Fab, V domains shown)
VH: B1 VH
VL: B1 VL with M24T, H90W
B28: KB001 mouse Fab VL S53K (Fab, V domains shown)
VH: B1 VH
VL: B1 VL with M24T, S53K
B29: KB001 mouse Fab VL S57R (Fab, V domains shown)
VH: B1 VH
VL: B1 VL with M24T, S57R
B30: KB001 mouse Fab VL S28V (Fab, V domains shown)
VH: B1 VH
VL: B1 VL with M24T, S28V
B31: KB001 mouse Fab VL S31P (Fab, V domains shown)
VH: B1 VH
VL: B1 VL with M24T, S31P
B32: KB001 mouse Fab VL S31T (Fab, V domains shown)
VH: B1 VH
VL: B1 VL with M24T, S31T
B33: KB001 mouse Fab VL S30G (Fab, V domains shown)
VH: B1 VH
VL: B1 VL with M24T, S30G
B34: KB001 mouse Fab VL L55P (Fab, V domains shown)
VH: B1 VH
VL: B1 VL with M24T, L55P
B35: KB001 mouse Fab VL S28W (Fab, V domains shown)
VH: B1 VH
VL: B1 VL with M24T, S28W
B36: KB001 mouse Fab VL S57Q (Fab, V domains shown)
VH: B1 VH
VL: B1 VL with M24T, S57Q
B37: KB001 mouse Fab VL S53Q (Fab, V domains shown)
VH: B1 VH
VL: B1 VL with M24T, S53Q
B38: KB001 mouse Fab VL N54S (Fab, V domains shown)
VH: B1 VH
VL: B1 VL with M24T, N54S
B39: KB001 mouse Fab VL S57E (Fab, V domains shown)
VH: B1 VH
VL: B1 VL with M24T, S57E
B40: KB001 mouse Fab VL S26N (Fab, V domains shown)
VH: B1 VH
VL: B1 VL with M24T, S26N
B41: KB001 mouse Fab VL T24H (Fab, V domains shown)
VH: B1 VH
VL: B1 VL with M24H

These binders were tested against HRgpA-6H (Porphyromonas gingivalis) (UniProt P28784) (assay: ELISA, FASEBA Fab on coated HRgpA-6H).
Sequence of UniProt P28784 (P28784 228-991): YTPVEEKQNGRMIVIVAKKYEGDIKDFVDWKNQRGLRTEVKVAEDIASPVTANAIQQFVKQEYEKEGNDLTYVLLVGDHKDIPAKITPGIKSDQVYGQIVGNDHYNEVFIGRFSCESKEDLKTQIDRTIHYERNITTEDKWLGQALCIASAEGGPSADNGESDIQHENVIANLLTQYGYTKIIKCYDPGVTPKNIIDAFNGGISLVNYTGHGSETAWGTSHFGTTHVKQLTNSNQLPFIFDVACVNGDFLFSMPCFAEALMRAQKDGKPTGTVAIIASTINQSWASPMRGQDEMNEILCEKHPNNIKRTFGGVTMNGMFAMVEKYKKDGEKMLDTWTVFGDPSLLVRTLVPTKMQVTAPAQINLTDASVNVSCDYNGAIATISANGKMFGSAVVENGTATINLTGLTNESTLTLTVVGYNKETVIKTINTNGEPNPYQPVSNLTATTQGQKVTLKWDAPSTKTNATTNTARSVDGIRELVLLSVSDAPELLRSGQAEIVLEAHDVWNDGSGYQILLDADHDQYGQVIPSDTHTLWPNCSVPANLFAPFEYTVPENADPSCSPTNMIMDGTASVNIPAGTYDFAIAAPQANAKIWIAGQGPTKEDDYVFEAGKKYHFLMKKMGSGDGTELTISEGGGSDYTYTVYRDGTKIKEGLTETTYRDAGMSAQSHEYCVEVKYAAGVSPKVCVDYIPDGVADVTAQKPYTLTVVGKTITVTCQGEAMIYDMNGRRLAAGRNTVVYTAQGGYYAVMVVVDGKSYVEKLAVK
In the case of B1, the OD450nm is reported as 0.797 and 0.75 and the Ratio OD(Variant)/OD(WT) is reported as 1.04 and 0.975. B2 was tested, and the OD450nm was 0.808 and 0.726 and the Ratio OD(Variant)/OD(WT) was 1.08 and 0.967. B3 showed an OD450nm of 0.876 and a Ratio OD(Variant)/OD(WT) of 1.12. With B4 the OD450nm was 0.821 and the Ratio OD(Variant)/OD(WT) was 1.05. Work on B5 yielded an OD450nm of 0.868 and a Ratio OD(Variant)/OD(WT) of 1.11. Work on B6 yielded an OD450nm of 0.843 and a Ratio OD(Variant)/OD(WT) of 1.03. In the case of B7, the OD450nm is reported as 0.818 and 0.827 and 0.775 and the Ratio OD(Variant)/OD(WT) is reported as 1.04 and 1.06 and 0.99. For B8, the OD450nm was 0.827 and 0.777 and the Ratio OD(Variant)/OD(WT) was 1.05 and 0.987. In the case of B9, the OD450nm is reported as 0.783 and 0.745 and 0.697 and the Ratio OD(Variant)/OD(WT) is reported as 1.04 and 0.993 and 0.929. For B10, the OD450nm was 0.816 and 0.815 and 0.777 and the Ratio OD(Variant)/OD(WT) was 1.04 (2×) and 0.992. For B11, the OD450nm was 0.823 and 0.801 and the Ratio OD(Variant)/OD(WT) was 1.05 and 1.02. For B12, the OD450nm was 0.797 and 0.734 and the Ratio OD(Variant)/OD(WT) was 1.04 and 0.954. For B13, the OD450nm was 0.873 and 0.825 and the Ratio OD(Variant)/OD(WT) was 1.07 and 1.01. In the case of B14, the Ratio OD(Variant)/OD(WT) is reported as 1.17 and 1.08 (2×) and 0.993. With B15 the OD450nm was 0.838 and 0.707 and the Ratio OD(Variant)/OD(WT) was 1.06 and 0.898. With B16 the OD450nm was 0.818 and the Ratio OD(Variant)/OD(WT) was 1.09. Binder B17 has an OD450nm of 0.911 and a Ratio OD(Variant)/OD(WT) of 1.06. B18 was tested, and the OD450nm was 0.858 and the Ratio OD(Variant)/OD(WT) was 1.05. For B19, the OD450nm was 0.852 and 0.81 and the Ratio OD(Variant)/OD(WT) was 1.11 and 1.05. With B20 the OD450nm was 0.857 and the Ratio OD(Variant)/OD(WT) was 1.05. With B21 the OD450nm was 0.915 and 0.777 and 0.851 and the Ratio OD(Variant)/OD(WT) was 1.05 and 0.888 and 0.973. B22 was tested, and the OD450nm was 0.903 and 0.798 and the Ratio OD(Variant)/OD(WT) was 1.07 and 0.944. B23 gave an OD450nm of 0.833 and a Ratio OD(Variant)/OD(WT) of 1.06. B24 gave an OD450nm of 0.849 and a Ratio OD(Variant)/OD(WT) of 1. With B25 the OD450nm was 0.854 and 0.688 and 0.693 and the Ratio OD(Variant)/OD(WT) was 1.01 and 0.814 and 0.82. In the case of B26, the OD450nm is reported as 0.801 and the Ratio OD(Variant)/OD(WT) is reported as 1.07. Work on B27 yielded an OD450nm of 0.913 and a Ratio OD(Variant)/OD(WT) of 1.06. In the case of B28, the OD450nm is reported as 0.841 and the Ratio OD(Variant)/OD(WT) is reported as 1.07. With B29 the OD450nm was 0.845 and 0.849 and the Ratio OD(Variant)/OD(WT) was 1.04. With B30 the OD450nm was 0.786 and 0.731 and 0.717 and the Ratio OD(Variant)/OD(WT) was 1.05 and 0.974 and 0.955. In the case of B31, the OD450nm is reported as 0.87 and 0.875 and 0.856 and the Ratio OD(Variant)/OD(WT) is reported as 1.03 and 1.04 and 1.01. B32 was tested, and the OD450nm was 0.859 and 0.74 and 0.782 and the Ratio OD(Variant)/OD(WT) was 1.02 and 0.876 and 0.925. In the case of B33, the OD450nm is reported as 0.916 and 0.858 and the Ratio OD(Variant)/OD(WT) is reported as 1.06 and 0.995. For B34, the OD450nm was 0.827 and 0.764 and 0.724 and the Ratio OD(Variant)/OD(WT) was 1.06 and 0.975 and 0.924. With B35 the OD450nm was 0.817 and 0.745 and the Ratio OD(Variant)/OD(WT) was 1.09 and 0.993. With B36 the OD450nm was 0.858 and 0.838 and the Ratio OD(Variant)/OD(WT) was 1.05 and 1.03. For B37, the OD450nm was 0.835 and 0.751 and 0.726 and the Ratio OD(Variant)/OD(WT) was 1.06 and 0.954 and 0.922. In the case of B38, the OD450nm is reported as 0.835 and 0.732 and 0.776 and the Ratio OD(Variant)/OD(WT) is reported as 1.07 and 0.934 and 0.99. In the case of B39, the OD450nm is reported as 0.843 and the Ratio OD(Variant)/OD(WT) is reported as 1.03. With B40 the OD450nm was 0.823 and 0.749 and the Ratio OD(Variant)/OD(WT) was 1.05 and 0.957. Binder B41 has an OD450nm of 0.795 and a Ratio OD(Variant)/OD(WT) of 1.03.
